Measurements from patent US20180339041A1 (Kyowa Kirin, published 2018).

T1: C-terminally FLAG-tagged rat Gas6 recombinant protein (rGas6-F) (rat, UniProt Q63772 28-674, limits assumed, gamma-carboxylated glutamic acid residues in the Gla domain (producer cells co-express rat VKOR and human GGCX); positions not given)
T1 construct: also called rat Gas6-F
T1 sequence (looked up): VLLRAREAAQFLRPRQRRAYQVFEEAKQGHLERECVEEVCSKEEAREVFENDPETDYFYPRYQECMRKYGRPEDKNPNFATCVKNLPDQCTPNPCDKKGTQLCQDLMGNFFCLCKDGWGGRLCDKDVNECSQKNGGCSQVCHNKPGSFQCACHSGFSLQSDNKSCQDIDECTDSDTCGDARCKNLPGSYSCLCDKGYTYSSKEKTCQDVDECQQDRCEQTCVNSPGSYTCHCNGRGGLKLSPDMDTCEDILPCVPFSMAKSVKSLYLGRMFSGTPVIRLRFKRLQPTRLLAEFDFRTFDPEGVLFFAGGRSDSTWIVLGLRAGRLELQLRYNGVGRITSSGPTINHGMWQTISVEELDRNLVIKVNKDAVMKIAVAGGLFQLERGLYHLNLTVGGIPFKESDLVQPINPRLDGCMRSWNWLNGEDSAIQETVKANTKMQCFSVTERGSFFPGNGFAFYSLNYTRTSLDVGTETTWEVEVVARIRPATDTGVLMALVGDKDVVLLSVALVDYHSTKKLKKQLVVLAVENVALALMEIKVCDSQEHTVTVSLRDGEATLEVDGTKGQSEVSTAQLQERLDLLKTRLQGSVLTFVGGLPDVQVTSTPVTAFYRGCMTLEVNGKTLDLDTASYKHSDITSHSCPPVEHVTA

T2: C-terminally FLAG-tagged human Gas6 recombinant protein (hGas6-F) (human, UniProt Q14393 31-678, gamma-carboxylated glutamic acid residues in the Gla domain (producer cells co-express rat VKOR and human GGCX); positions not given)
T2 construct: also called human Gas6-F; human Gas6 protein
T2 sequence: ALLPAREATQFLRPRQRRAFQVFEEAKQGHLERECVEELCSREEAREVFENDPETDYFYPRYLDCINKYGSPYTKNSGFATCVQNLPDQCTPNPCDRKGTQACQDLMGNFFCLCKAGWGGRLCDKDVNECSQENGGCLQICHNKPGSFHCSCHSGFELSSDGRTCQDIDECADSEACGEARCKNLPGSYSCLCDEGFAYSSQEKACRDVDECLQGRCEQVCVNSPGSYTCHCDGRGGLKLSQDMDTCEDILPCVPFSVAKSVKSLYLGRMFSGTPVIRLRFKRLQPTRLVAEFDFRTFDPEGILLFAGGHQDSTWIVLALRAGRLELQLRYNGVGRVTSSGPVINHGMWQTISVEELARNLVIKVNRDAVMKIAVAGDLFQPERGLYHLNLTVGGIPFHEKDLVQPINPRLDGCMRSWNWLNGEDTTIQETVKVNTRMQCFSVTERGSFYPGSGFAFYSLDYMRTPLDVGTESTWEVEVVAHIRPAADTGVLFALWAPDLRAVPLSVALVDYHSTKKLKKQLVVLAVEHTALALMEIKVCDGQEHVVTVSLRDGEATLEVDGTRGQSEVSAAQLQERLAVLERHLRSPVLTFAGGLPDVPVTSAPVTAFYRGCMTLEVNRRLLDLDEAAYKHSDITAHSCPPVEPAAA

T3: C-terminally FLAG-tagged cynomolgus monkey Gas6 recombinant protein (cGas6-F) (cynomolgus monkey, UniProt Q14393 31-678 (human entry), gamma-carboxylated glutamic acid residues in the Gla domain (producer cells co-express rat VKOR and human GGCX); positions not given)
T3 construct: also called cynomolgus monkey Gas6-F; monkey Gas6-F
T3 chain: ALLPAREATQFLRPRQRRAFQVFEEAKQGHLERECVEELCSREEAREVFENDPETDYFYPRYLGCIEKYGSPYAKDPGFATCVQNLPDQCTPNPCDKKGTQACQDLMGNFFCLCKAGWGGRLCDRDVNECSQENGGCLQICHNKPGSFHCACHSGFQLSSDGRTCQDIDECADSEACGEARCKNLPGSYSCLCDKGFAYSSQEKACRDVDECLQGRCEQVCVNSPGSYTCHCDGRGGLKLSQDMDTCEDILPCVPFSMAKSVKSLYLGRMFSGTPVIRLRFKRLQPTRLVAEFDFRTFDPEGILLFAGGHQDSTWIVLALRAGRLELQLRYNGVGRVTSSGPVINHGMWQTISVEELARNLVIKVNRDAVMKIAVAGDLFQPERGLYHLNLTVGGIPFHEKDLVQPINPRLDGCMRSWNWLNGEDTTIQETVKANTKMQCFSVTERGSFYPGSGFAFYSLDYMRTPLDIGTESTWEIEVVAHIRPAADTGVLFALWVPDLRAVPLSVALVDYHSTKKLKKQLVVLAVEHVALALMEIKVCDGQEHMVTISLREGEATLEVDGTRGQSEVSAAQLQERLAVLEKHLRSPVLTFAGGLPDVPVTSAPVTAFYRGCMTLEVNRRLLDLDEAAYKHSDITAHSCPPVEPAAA

B1: anti-human Gas6 mouse monoclonal antibody KM5320 (KM5320-mKG1 antibody) (antibody, V domains shown)
VH: QIQLVQSGPELKKPGETVKISCKASGYTFTNYGMNWVKQAPGKGLKWMGWINTETGEPTYSDDFKGRFAFSLETSATTAYLQINNLRNEDMATYFCAREDGYYGTLDYWGQGTSVTVSS
VL: SIVMTQTPKFLLVSAGDRVTITCKASQSVSNDVAWYQQKPGQSPKVLIYYASNRYTGVPDRFTGSGYGTDFTFTISTVQAEDLAVYFCQQDYSSPWTFGGGTKLEIK
notes: Hybridoma-derived mouse IgG1, kappa; also called KM5320 antibody
B2: anti-human Gas6 mouse monoclonal antibody KM5321 (KM5321-mKG1 antibody) (antibody, V domains shown)
VH: QIQLVQSGPELKKPGETVKISCRASGYTFTNYGMNWVKQAPGKGLKWMGWINTNTGEPTYTEEFKGRFAFSLETSATTAYLQINDLKNEDTATYFCARDEGWFVYWGQGTLITVSA
VL: ETTVTQSPASLSVATGEKVTIRCITSTDIDDDMNWYQQKPGEPPKLLISEGNTLRPGVPSRFSSSGYGTDFVFTIENTLSEDVADYYCLQTDSVPLTFGAGTKLELK
notes: Hybridoma-derived mouse IgG1, kappa; also called KM5321 antibody

Experiments:
[1] = target: T1, C-terminally FLAG-tagged rat Gas6 …; experiment: competition ELISA: rAxl-hFc coated; rGas6-F at 50 ng/mL final premixed with the antibody; bound Gas6-F detected with anti-FLAG M2-HRP; blocked partner rAxl-hFc (Examples 5(4) and 7) [B]
[2] = target: T2, C-terminally FLAG-tagged human Gas6 …; experiment: competitive ELISA, hAxl-hFc immobilised, 50 ng/mL hGas6-F
[3] = target: T3, C-terminally FLAG-tagged cynomolgus …; experiment: ELISA: cGas6-F (1 µg/mL) captured on coated anti-FLAG M2 antibody; biotinylated test antibody; streptavidin-HRP/TMB; absorbance 450-570 nm, N=2 (Example 6) [B]
Experimental: First, 2 μg/mL anti-FLAG antibody [Monoclonal ANTI-FLAG M2 antibody produced in mouse (manufactured by Sigma-Aldrich Co. LLC) diluted with PBS (manufactured by Nacalai Tesque, Inc.)] was dispensed at 50 μL/well to a 96-well plate for ELISA (manufactured by Nalge Nunc International), and the plate was left standing overnight at 4° C. for adsorption. After removal of the immobilization solution, 1% BSA-PBS (manufactured by Nacalai Tesque, Inc.) was added thereto at 300 μL/well, and the plate was left standing at room temperature for 1 hour for blocking and washed five times with Tween 20-PBS (manufactured by Wako Pure Chemical Industries Ltd.).
Each antibody solution was dispensed thereto at 50 μL/well, and the plate was left standing at room temperature for 1 hour. This plate was washed five times with Tween 20-PBS. Then, Streptavidin HRP Conjugate (manufactured by R&D Systems, Inc.) diluted 200-fold with 1% BSA-PBS was dispensed thereto at 50 μL/well, and the plate was left standing at room temperature for 1 hour. This plate was washed five times with Tween 20-PBS, and TMB (manufactured by Sigma-Aldrich Co. LLC) was added thereto at 50 μL/well and reacted. […] The absorbance at a sample wavelength of 450 nm and a reference wavelength of 570 nm (450 nm-570 nm) was measured using a plate reader.

Row | Binder | IC50 (read off the curve) [1] | antibody:Gas6 molar concentration ratio at complete inhibition [2] | EC50 (read off the curve) [3]
1 | B1 | ~50 ng/mL | 2 antibody:Gas6 molar ratio | ~4 ng/mL
2 | B2 | ~30 ng/mL | 0.5 antibody:Gas6 molar ratio | ~4 ng/mL
